Measured values taken from PMC5175582.

Key:
[1] = target: Biotin-labelled MMRN1 (human) (UniProt Q13201); assay: SPR; BIAcoreX; biotin-labelled MMRN1 immobilised on streptavidin-coated sensor chips (500–1000 RU); VWF A domains perfused in HEPES-Tyrode running buffer with 0.005 % P-20; two-state conformational model for A1A2A3 and A1, 1:1 Langmuir model for A3; apparent affinity
[2] = target: full-length wild-type (WT)-VWF (UniProt P04275); assay: ELISA; modified ELISA; MMRN1 immobilised; WT-VWF (1 µg/ml) added simultaneously with collagen peptide (250 μg/ml, no preincubation with VWF); treatment of VWF not stated for this panel

Sequence of Biotin-labelled MMRN1 (human) (Q13201 20-1228): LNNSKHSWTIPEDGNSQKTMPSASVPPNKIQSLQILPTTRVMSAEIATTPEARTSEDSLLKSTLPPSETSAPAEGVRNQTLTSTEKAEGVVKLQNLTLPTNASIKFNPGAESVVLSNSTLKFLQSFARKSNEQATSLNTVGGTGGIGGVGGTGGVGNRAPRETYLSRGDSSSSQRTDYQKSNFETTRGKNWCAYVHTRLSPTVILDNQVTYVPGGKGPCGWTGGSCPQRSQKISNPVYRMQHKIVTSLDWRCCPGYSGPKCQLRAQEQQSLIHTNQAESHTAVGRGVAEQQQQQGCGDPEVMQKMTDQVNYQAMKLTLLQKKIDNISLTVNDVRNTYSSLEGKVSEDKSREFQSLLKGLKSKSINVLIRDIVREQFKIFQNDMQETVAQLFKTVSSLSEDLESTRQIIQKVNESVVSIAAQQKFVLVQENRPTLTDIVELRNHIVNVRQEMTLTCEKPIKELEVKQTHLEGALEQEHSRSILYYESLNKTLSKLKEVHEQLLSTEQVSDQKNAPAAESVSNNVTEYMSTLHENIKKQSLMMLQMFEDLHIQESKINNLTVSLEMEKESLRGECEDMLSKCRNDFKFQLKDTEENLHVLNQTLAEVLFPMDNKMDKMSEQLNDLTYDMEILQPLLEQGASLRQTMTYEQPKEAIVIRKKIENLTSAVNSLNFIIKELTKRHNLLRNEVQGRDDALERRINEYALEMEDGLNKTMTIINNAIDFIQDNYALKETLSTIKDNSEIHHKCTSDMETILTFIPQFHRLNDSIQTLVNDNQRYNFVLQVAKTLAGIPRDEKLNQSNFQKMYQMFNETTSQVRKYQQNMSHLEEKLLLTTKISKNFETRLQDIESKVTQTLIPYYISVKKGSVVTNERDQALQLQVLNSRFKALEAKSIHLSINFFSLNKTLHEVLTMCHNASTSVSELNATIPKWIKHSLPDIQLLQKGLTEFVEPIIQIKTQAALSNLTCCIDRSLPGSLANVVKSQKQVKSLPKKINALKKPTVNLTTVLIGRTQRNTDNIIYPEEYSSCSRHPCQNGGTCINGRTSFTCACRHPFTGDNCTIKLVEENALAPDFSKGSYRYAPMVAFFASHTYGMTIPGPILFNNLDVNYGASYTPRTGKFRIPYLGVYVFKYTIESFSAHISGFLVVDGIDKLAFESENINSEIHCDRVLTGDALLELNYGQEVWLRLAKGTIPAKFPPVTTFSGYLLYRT

Kd [1] | ka1 (two-state model, first step) [1] | ka2 (two-state model, second step) [1] | kd1 (two-state model, first step) [1] | kd2 (two-state model, second step) [1] | percent reduction of WT-VWF binding to immobilised MMRN1 [2] | Substance
39.3 nM | 1.2e+06 M⁻¹ s⁻¹ | 0.01 s⁻¹ | 0.13 s⁻¹ | 0.0032 s⁻¹ | – | Monomeric VWF A1 domain (domain or fragment)
– | – | – | – | – | 70% | Triple-helical type III collagen peptide GPRGQOGVMGFO
